From patent US20260258115A1 (MAPP BIOPHARMACEUTICAL, published 2026) come the findings set out here.

For experiment [1], the target named is RSV fusion glycoprotein (RSV F) on RSV-A2 virus (respiratory syncytial virus, UniProt P03420 26-574). Kind of experiment: cell-based or functional assay.
For experiment [2], the target named is RSV prefusion F (preF), DS-Cav1 (respiratory syncytial virus, UniProt P03420 26-513). The experiment in a line: BLI, IgG on sensor, 100 nM antigen. Background: BLI is a label-free optical method that tracks binding on a fibre tip over time.
The target of experiment [3] is RSV postfusion F (postF), F deltaFP (respiratory syncytial virus, UniProt P03420 26-513). The experiment in a line: BLI, IgG on sensor, 100 nM antigen.

In general, Kd refers to the constant that tells how readily two partners part at equilibrium. Higher therefore signals a looser complex.

B1: ADI-41393 (antibody, V domains shown)
VH: QVQLVQSGAEVKKPGESLKISCKGSGYSFTSYWIGWVRQMPGKGLEWMGIIYPGDSDTRYSPSFQGQVTISADKSTSTAYLQWSSLKASDSAMYYCARSEFSSSFDFWGQGTLVTVSS
VL: NFMLTQPHSVSESPGKTVTISCTGSSGSIASYYVQWYQLRPGSAPTTVIYEDNQRLSGVPDRFSGSIDSSSNSASLTISGLKTEDEADYYCQSYRSGIPWVFGGGTKLTVL
notes: IgG1; also called Ab 687
B1: the “Neutralization IC50 (RSV subtype A)” value in experiment [1] is over 25 µg/mL. For the same molecule, the Kd in experiment [2] worked out at 1.67 nM; in experiment [3], 0.247 nM.

B2: ADI-41389 (antibody, V domains shown)
VH: EVQLVESGGGVVQPGRSLRLSCAASGFTFSNYAIHWVRQAPGKGLEWVAAISYDGGNKFYADSVKGRFTISRDNSRNTLYLQMNSLRPEDTAVYYCARDRWELNYGIDVWGQGTTVTVSS
VL: SYELMQPPSVSVSPGQTARITCSGDALPKQYAYWYQQKPGQAPVLVIYKDSERPSGIPERFSGSTSGTTVTLTISGVQAEDEADYYCQSADSSSTFFYVFGTGTKLTVL
notes: IgG1; also called Ab 683
Regarding B2, the “Neutralization IC50 (RSV subtype A)” value in experiment [1] is over 25 µg/mL. The results for the Kd in experiment [2] and in experiment [3] were 2.58 nM and 0.513 nM, respectively.

B3: ADI-41392 (antibody, V domains shown)
VH: EVQLVESGGGVVQPGGSLRLSCAASGFEFRDYAMHWVRQAPGKGLEWVALISYDGSKIHYADSVQGRFSISRDNSKNSLYLQMNSLRSEDSAKYYCVQDHWLVPAFWGQGAQVTVSS
VL: QPVLTQPASVSGSPGQWITISCTGTSSDIGYYDYVSWYQQYPGKAPKLIIYEVSHRPSGVSNRFSGSKSGNTASLSISGLQAEDEADYYCSSYTTSNAGVFGTGTKLTVL
notes: IgG1
For the molecule B3, in experiment [1], the “Neutralization IC50 (RSV subtype A)” value came out at 0.18 µg/mL. Moreover, the results for the Kd in experiment [2] and in experiment [3] were 0.329 nM and 0.359 nM, respectively.

B4: ADI-41407 (antibody, V domains shown)
VH: EVQLVESGGGLVQPGGSLRLSCAASGFTFSSNAMSWVRQAPGKGLEWVSYISGGSATKSYADSVKGRFTISRDNSKNTLYLQMKSLRAEDTAVYYCVGGSAYYSGFDYWGQGTLVTVSS
VL: DIVMTQSPSSLSASVGDRVTISCRASQDIRNYLAWYQQKPGKVPNLLIYAASTLESGVPSRFSGSGYGTDFTLTISGLQPEDVATYYCQKYDSAPPFTFGPGTKVDIK
notes: IgG1
As for B4, the “Neutralization IC50 (RSV subtype A)” value in experiment [1] is over 25 µg/mL. Further, the figures for the Kd in experiment [2] and in experiment [3] were 2.08 nM and 0.371 nM, respectively.

B5: ADI-41391 (antibody, V domains shown)
VH: EVQLLESGPGLVKPSETLSLTCTVSGGSISGYYWSWIRQPPGKGLEWIGYIYHSGGSTNYNPSLKSRVTISVDTSKNQFSLKVSSVTAADTAVYYCARLARVVTTFDFWGQGALVTVSS
VL: QPVLTQPASVSGSPGQSITISCTGTSSDVGGYNYVSWYQQKPGTAPKLMIFDVSNRPSGVSNRFSGSKSDNTASLTISGLQAEDEADYYCSSYTSSTNLVFGGGTKLTVL
notes: IgG1
B5: in experiment [1], the “Neutralization IC50 (RSV subtype A)” value is over 25 µg/mL. Besides, the values for the Kd in experiment [2] and in experiment [3] were 0.882 nM and 0.479 nM, respectively.

B6: ADI-41376 (antibody, V domains shown)
VH: QVQLQESGGGVVQPGRSLRLSCAASGFTFSSYAMHWVRQAPGKGLEWVAVISFDGTANKYYADSVKGRFAISRDNSKNTLYLQMNSLRAEDTAVYYCAKDDAIYSGGWVGDAFDLWGQGTMVTVSS
VL: EIVLTQSPATLSVSPGERATLSCRASQGVNSNLAWYQQKPGQAPRLLMYGASTRATGIPARFSGSGSETEFTLTISSLQSEDFAVYYCQQYNNWPRTFGQGTKVDIK
notes: IgG1; also called Ab 673
Turning to B6, in experiment [1], the “Neutralization IC50 (RSV subtype A)” value is over 25 µg/mL. The dissociation constant (Kd) was found to be 4.15 nM in experiment [2] and 0.705 nM in experiment [3].

B7: ADI-41403 (antibody, V domains shown)
VH: EVQLVESGGGLVKPGGSLRLSCAASGFTFGTYTMNWVRQAPGKGLEWVSSISSSSSHIYYADSVKGRFTISRDNARKALYLQMNSLRPEDTAVYFCARFLGDYGGDGNTYYYYYGMDVWGQGTTVTVSS
VL: EIVMTQSPLSLPVTPGEPASISCRSSQSLLHSNGKNYLDWYLQKPGQSPQLLIHLGSNRASGVPDRFSGSGSGTDFTLQISRVEAEDVGVYYCMQALQTPTFGGGTKLEIK
notes: IgG1
For the molecule B7, the “Neutralization IC50 (RSV subtype A)” value in experiment [1] was over 25 µg/mL. Besides, the dissociation constant Kd was found to be 3.04 nM in experiment [2] and 0.841 nM in experiment [3].

B8: ADI-41385 (antibody, V domains shown)
VH: EVQLVESGGGVVQPGRSLRLSCAASGFTFSSYGMHWVRQAPGKGLEWVAVIWYDGNNEKYADSVKGRFTISRDNSKNTLYLQMNSLRAEDTAVYYCARPTQKYSSSWYWEDSIDYWGQGTLVTVSS
VL: QSVLTQPPSVFGAPGQRVTISCTGSSSNIGAGYPVHWYQQLPGTAPKLLIYGNSNRPSGVPDRFSGSKSGTSASLAITGLQAEDEADYYCQSYDSSLSGGVVFGGGTKLTVL
notes: IgG1; also called Ab 681
As to B8, the “Neutralization IC50 (RSV subtype A)” value in experiment [1] is over 25 µg/mL. Moreover, the values for the Kd in experiment [2] and in experiment [3] were 4.52 nM and 0.601 nM, respectively.

B9: ADI-41375 (antibody, V domains shown)
VH: QVQLVQSGGGVVQPGRSLRLSCATSGFTFSDYAIHWVRQAPGKGLEWVAVISYDGSHKYYGDSVKGRFTISRDNSKNTLYLQMNSLRPEDTAVYYCARSRSGSYYSSAIDNWGQGTLVTVSS
VL: DIQMTQSPSSLSASVGDRVTIACRASQGISSALAWYRQRPGKAPELLIYDASTLESGVPSRFSGYGAGTDFTLTISSLQPEDFATYYCQQFNSYPSITFGQGTKVEIK
notes: IgG1
Turning to B9, the “Neutralization IC50 (RSV subtype A)” value in experiment [1] was over 25 µg/mL. Moreover, the Kd came to 2.96 nM in experiment [2] and 1.02 nM in experiment [3].

B10: ADI-41415 (antibody, V domains shown)
VH: QVTLKESGPALVKPTQTLTLTCTFSGFSLSTSRTRVSWIRQPPGKALEWLARVDWDDDKFYNPVLKTRLSISKDPSKNQVVLTMTNVDPVDTATYYCVRMAHYGSGGYYVEYFQDWGQGTLVTVSS
VL: DIQLTQSPASLSASAGDRVTITCRASQNINRYLNWYQQQSGKAPKLLIYAASILQSGVPSRFSGSGSGTDFTLTITSLQPEDFAIYYCQQSYTTPKYTFGQGTKVEIK
notes: IgG1
Regarding B10, the “Neutralization IC50 (RSV subtype A)” value in experiment [1] was over 25 µg/mL. In addition, the values for the Kd in experiment [2] and in experiment [3] were 1.08 nM and 0.644 nM, respectively.

B11: ADI-41378 (antibody, V domains shown)
VH: EVQLVESGPGLVKPSGTLSLTCAVSGDSISSSNWWSWVRQPPGKGLEWIGEVSHSGNTDYNPSLKSRVTISVDKSKNQFSLKLSSVTAADTAVYYCARPSPCSGGSCYWFFDLWGRGTLVTVSS
VL: DIRLTQSPSSLSASVGDRVTITCRASQTINAYLNWYQQRPGKAPNLLIYAASSLQSGVPSRFSGSGSGTDFTLTISSLQPEDFATYYCQQSYKTAYTFGQGTKVEIK
notes: IgG1
As to B11, the “Neutralization IC50 (RSV subtype A)” value in experiment [1] is over 25 µg/mL. Also, the dissociation constant Kd came out at 2.98 nM in experiment [2] and 0.739 nM in experiment [3].

B12: ADI-41405 (antibody, V domains shown)
VH: EVQLLESGGGLVQPGGSLRLSCAASGFSFSIYSMNWVRQAPGKGLEWISYITSTGSPTYYADSVKGRFTISRDNAKNSLYLQMSSLRAEDTAVYYCVTYCSSSSCPAEFDYWGQGTLVTVSS
VL: EIVLTQSPATLSLSPGERATLSCRASQSVNSYLAWYQQKPGQAPRLLIYDASNRATGIPARFSGSGSGTDFTLTISSLEAEDFAVYYCQHRNNWPALTFGGGTKVEIK
notes: IgG1
As for B12, the “Neutralization IC50 (RSV subtype A)” value in experiment [1] is over 25 µg/mL. In addition, the figures for the Kd in experiment [2] and in experiment [3] were 2.72 nM and 0.458 nM, respectively.

B13: ADI-41414 (antibody, V domains shown)
VH: EVQLLESGGGLAQPGRSLKVSCAASGVTVTSTYMGWVRQAPGKGLQWVSVIYSDGTTYYADSVKGRFTISRDHYKNTLYLQMNSLRAEDTALYYCARGNRRTDFGYWGQGTLVTVSS
VL: EIVMTQSPSTLSASVGDRVTITCRASQTISNWLAWYQQKPGKAPKLLIYQASTLESGVPSRFSGSGSGTEFTLTISSLQPDDFATYYCQQYNTYYTFGPGTKVEIK
notes: IgG1
Turning to B13, the “Neutralization IC50 (RSV subtype A)” value in experiment [1] was over 25 µg/mL. Further, the dissociation constant (Kd) in experiment [2] was found to be 2.7 nM; in experiment [3], 1.1 nM.

B14: ADI-41404 (antibody, V domains shown)
VH: QVQLVQSGAEVKKPGSSVKVSCKASGGTFSSYGISWVRQAPGQGLEWMGGIIPIFGTVSYAQKFRGRLTITAHEPTSTAYMDLSSLRSEDTAVYYCARINGRGWELSSLNYYYGMDVWGQGTTVTVSS
VL: EIVLTQSPGTLSLSPGERGTLSCRASQSVASSYLAWYQQKPGQAPRLLIYGATSRATGIPDRFSGSGSGTDFTLTISRLEPEDFAVYYCQQYGSSLFTFGGGTKVDIK
notes: IgG1; also called Ab 696
As to B14, the “Neutralization IC50 (RSV subtype A)” value in experiment [1] is over 25 µg/mL. For the same molecule, the Kd in experiment [2] amounted to 47.4 nM; in experiment [3], 13.6 nM.

B15: ADI-41384 (antibody, V domains shown)
VH: QVQLVQSGAEVKKPGSSVRVSCKASGGTFSRYAISWVRQAPGQGLEWMGGVIPRFDKTNYAQKFQGRVMITADKSTSTAYMELSSLRSDDTAVYYCAGDRLDTKITHTWYGFGDFWGQGTTVTVSS
VL: EIVLTQSPGTLSLSPGERATLSCRASQSVTSNFLAWYQQRPGQAPRLLIYGASVRAIDIPDRFSGSGSGTDFTLTISRLEPEDFAVYYCQQYGDPFRTFGQGTKVEIK
notes: IgG1; also called Ab 680
For B15, the “Neutralization IC50 (RSV subtype A)” value in experiment [1] is over 25 µg/mL. In addition, the dissociation constant Kd came out at 3.45 nM in experiment [2] and 0.563 nM in experiment [3].

B16: ADI-41381 (antibody, V domains shown)
VH: QVQLQESGPGLVKPSQTLSLTCTVSGDSISGGEHYWSWIRQPPGKGLEWIGSIYYSGTTYYNPSLKSRLTVSVDTFKNQFSLMLSYVTAADTAVYYCARDASPAYHDYIWGSCRYFDKWGQGTLVTVSS
VL: EIVLTQSPGTLSLSPGERATLSCRASQSVSSNYLAWYQQKPGQAPRILIHGASSRATGIPDRFSGSGSGTDFTLTVSRLEPEDFAVYYCQQYGSTPYTFGQGTKVEIK
notes: IgG1; also called Ab 678
For the molecule B16, in experiment [1], the “Neutralization IC50 (RSV subtype A)” value was over 25 µg/mL. Further, the equilibrium dissociation constant (Kd) turned out to be 2.6 nM in experiment [2] and 1.34 nM in experiment [3].

B17: ADI-41418 (antibody, V domains shown)
VH: EVQLVESGGGLVKPGGSLRLSCAASGLSFTDAWMGWVRQAPGKGLEWVGHIKKKTDYGPTAYAAPVRGRFTVSRDDSKNTLYLQMTSLKTEDTAVYYCITERGYNFGYNDYFGVDVWGQGTLVTVSS
VL: QPGLTQPPSVSVSPGQTARITCSGDALPKKYAYWYQQKSGQAPVMIIYEDNKRPSGIPERFSGSTSGTMATLTISGAQMEDEADYYCFSTDSGDDQSGVFGGGTRLTVL
notes: IgG1
Take B17: in experiment [1], the “Neutralization IC50 (RSV subtype A)” value is over 25 µg/mL. Moreover, the Kd in experiment [2] is 1.58 nM; in experiment [3] it was 0.341 nM.
